Common to all, as to assay: SPR
Background: In SPR one partner is held on a chip, and binding of the other changes the refractive index at the surface.

In test [1] the target is VRC01 antibody derived from HEK cells (VRC01HEK) (human).
Test [2] addresses plant‐produced VRC01 variant lacking Fc N‐glycans, N297S (VRC01aglyco) (human).
Test [3] addresses VRC01 co‐expressed with human β1,4‐galactosyltransferase in the ΔXT/FT plant line (VRC01Gal) (human).
Test [4] concerns the target VRC01 expressed in the ΔXT/FT N. benthamiana plant line (VRC01ΔXF) (human).
Test [5] has as its target VRC01 expressed transiently in WT N. benthamiana (VRC01WT) (human).

Bounds are passed on as bounds.

The record followed here is publication PMC6953194.

For orientation: Kd means the free concentration of one partner at which half of the binding sites on the other are occupied at equilibrium, for simple one-to-one binding. The low end stands for tighter binding, the high end for weaker binding.

Sequence of VRC01 expressed transiently in WT N. benthamiana (VRC01WT) (human) (light, as listed by the source, chain 2 of 2, other chains not shown): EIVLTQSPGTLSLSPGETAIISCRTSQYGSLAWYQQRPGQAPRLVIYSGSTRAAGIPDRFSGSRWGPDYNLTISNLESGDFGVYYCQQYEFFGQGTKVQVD
Sequence of recombinant human FcγRI ectodomain (P12314 16-292): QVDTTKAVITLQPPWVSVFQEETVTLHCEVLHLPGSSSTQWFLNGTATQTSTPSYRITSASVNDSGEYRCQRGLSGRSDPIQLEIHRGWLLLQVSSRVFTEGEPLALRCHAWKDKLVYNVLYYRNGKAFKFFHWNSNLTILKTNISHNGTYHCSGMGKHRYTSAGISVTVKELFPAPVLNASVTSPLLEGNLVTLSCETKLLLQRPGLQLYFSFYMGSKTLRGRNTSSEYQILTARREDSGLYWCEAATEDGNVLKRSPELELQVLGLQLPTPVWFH
Sequence of VRC01 antibody derived from HEK cells (VRC01HEK) (human) (light, as listed by the source, chain 2 of 2, other chains not shown): as the sequence (light, as listed by the source, chain 2 of 2, other chains not shown) above
Sequence of VRC01 expressed in the ΔXT/FT N. benthamiana plant line (VRC01ΔXF) (human) (light, as listed by the source, chain 2 of 2, other chains not shown): as above
Sequence of VRC01 co‐expressed with human β1,4‐galactosyltransferase in the ΔXT/FT plant line (VRC01Gal) (human) (light, as listed by the source, chain 2 of 2, other chains not shown): as above
Sequence of plant‐produced VRC01 variant lacking Fc N‐glycans, N297S (VRC01aglyco) (human) (light, as listed by the source, chain 2 of 2, other chains not shown): as above

Consider “recombinant human FcγRI ectodomain (from UniProt P12314 16-292) (receptor)”, for which the Kd in test [1] came to 0.098 nM; in test [2], 71 nM; in test [3], 0.558 nM; in test [4] it was 0.247 nM; in test [5], 3 nM. The substance further showed a half‐life of the antibody–FcγRI complex in test [5] of 5 min.
For “recombinant human FcγRIIb ectodomain (from UniProt P31994 43-217) (receptor)”, the Kd was 3400 nM in test [1], 3700 nM in test [3], 2500 nM in test [4] and more than 7000 nM in test [5].
